This data set in a line: label from the status in PepcDB records.
With “MEPKPFFLCIIFLLFCSSSSEILQKQTYIVQLHPNSETAKTFASKFDWHLSFLQEAVLGVEEEEEEPSSRLLYSYGSAIEGFAAQLTESEAEILRYSPEVVAVRPDHVLQVQTTYSYKFLGLDGFGNSGVWSKSRFGQGTIIGVLDTGVWPESPSFDDTGMPSIPRKWKGICQEGESFSSSSCNRKLIGARFFIRGHRVANSPEESPNMPREYISARDSTGHGTHTASTVGGSSVSMANVLGNGAGVARGMAPGAHIAVYKVCWFNGCYSSDILAAIDVAIQDKVDVLSLSLGGFPIPLYDDTIAIGTFRAMERGISVICAAGNNGPIESSVANTAPWVSTIGAGTLDRRFPAVVRLANGKLLYGESLYPGKGIKNAGREVEVIYVTGGDKGSEFCLRGSLPREEIRGKMVICDRGVNGRSEKGEAVKEAGGVAMILANTEINQEEDSIDVHLLPATLIGYTESVLLKAYVNATVKPKARIIFGGTVIGRSRAPEVAQFSARGPSLANPSILKPDMIAPGVNIIAAWPQNLGPTGLPYDSRRVNFTVMSGTSMSCPHVSGITALIRSAYPNWSPAAIKSALMTTADLYDRQGKAIKDGNKPAGVFAIGAGHVNPQKAINPGLVYNIQPVDYITYLCTLGFTRSDILAITHKNVSCNGILRKNPGFSLNYPSIAVIFKRGKTTEMITRRVTNVGSPNSIYSVNVKAPEGIKVIVNPKRLVFKHVDQTLSYRVWFVLKKKNRGGKVASFAQGQLTWVNSHNLMQRVRSPISVTLKTN”, the protein production result is on record as “failed”.
On to “MPSGRTHTKINLISLPVVLFMLFSYGLTNFDFLLTFAIGFLVGTTFLTPDLDTYSNAYNKWGFLRIFWYPYKKVMPHRSFFTHTIILGDVIRIAYMLIVFSPFLFLLNVIALDGNLIEMAKEHEVEIVTFVMGIVVASTLHIIADKVNTRRKKMMRKKKKRRR”, for which the protein production result is recorded as “failed”.
For “MPVQNRIHKGINMNSYAHLNVEKRGHTAVVTIDNPPANTWNRASLTALKQLVADLNADRDIYALVITGQGEKFFSAGADLNLFADGDKKVATEMTLLFGEAFEALSAFRGVSIAAINGYAMGGGLECALACDIRIAEEQAQMALPEAGVGLLPCAGGTQNLPWLVGEGWAKRMILCGERVNAATAERIGLVEQVVAKGEALAAALKLAEGVARQSPSSVGVCKQLVQAARTQPPAWNLIKEREAFIKLFDTQDQAEGTRAFLEKRAPNWKNA”, the protein production result is recorded as “failed”.
Turning to “MSLADTVRMGTEGAYPPYNFINDAGEVDGFERELGDELCKRAGLTCEWVKNDWDSIIPNLVSGNYDTIIAGMSITDERDEVIDFTQNYIPPTASSYVATSDGADLSGIVAAQTATIQAGYIAESGATLVEFATPEETIAAVRNGEADAVFADRDYLVPIVAESGGELMFVGDDVPLGGGVGMGLRESDGELRGKFDAAITSMKEDGTLNTMIKKWFGEDAAVYEEGHHHHHH”, the protein production result was “not failed”.
Regarding “MVGTFLGTGASSGVPMLNCSCKVCTSSYSKNKRLRSSFFLESSSGIKLLIDTGPDIRQQLLREKIDRLDLVLYTHEHYDHIMGFDDIKFYTRCAPLNIYARDTAMAHIRNAFPYNFTSKPSLSGKADIIANVIRDFEPFFFKSLKIVPIPLIHGDIISLGYRVGNLAYLTDVKFIPEASYDYLKNLDLLIIDAMRIKPHPAHLNFSEAFCVIKKINPKISYFTHIAHDIMHEEFDYLEKDNIYLAYDGLKIYILEHHHHHH”, the protein production result was “failed”.
As to “VYGSEVESKIIEFTIVGADEIIAEKLGISVGDFVYKIIRLRIIHSIPTIMEHTWMPISVIPGVEVSVLEESIYSHIQNKLGLQVGTSVVRVKGIRPDDKEKQFMNLTNQDFLMRVEQVAYLTDGRTFEYSYADHLPETFEFETVITAKSYKEA”, the protein production entry was “not failed”.
Take “MEGSSSTIARKTWELENSILTVDSPDSTSDNIFYYDDTSQTRFQQEKPWENDPHYFKRVKISALALLKMVVHARSGGTIEIMGLMQGKTDGDTIIVMDAFALPVEGTETRVNAQDDAYEYMVEYSQTNKLAGRLENVVGWYHSHPGYGCWLSGIDVSTQRLNQQHQEPFLAVVIDPTRTVSAGKVEIGAFRTYSKGYKPPDEPVSEYQTIPLNKIEDFGVHCKQYYSLDVTYFKSSLDSHLLDLLWNKYWVNTLSSSPLLGNGDYVAGQISDLAEKLEQAESHLVQSRFGGVVPSSLHKKKEDESQLTKITRDSAKITVEQVHGLMSQVIKDELFNSMRQSNNKSPTDSSDPDPMITY”: the protein production entry was “failed”.
In the case of “INDKLLVQTIKKALFGLRYQRAKKDIQEKDTMISVVADNSPAGICLFGDNGIIYANKALETITGYSKSELIGGSLLDIIQSDSKRLSERINLSLDSACNLEKYSEIRIKTKTGKIRYIDLIANSVEFKEGYVCIANMIDV”, the protein production result was “failed”.
“VFHPVECSYCHSESMMGFRYRCQQCHNYQLCQDCFWRGHAGGSHSNQHQMKEYTSW”: the protein production result was “not failed”.
In the case of “MKEKVVSLAQDLIRRPSISPNDEGCQQIIAERLEKLGFQIEWMPFNDTLNLWAKHGTSEPVIAFAGHTDVVPTGDENQWSSPPFSAEIIDGMLYGRGAADMKGSLAAMIVAAEEYVKANPNHKGTIALLITSDEEATAKDGTIHVVETLMARDEKITYCMVGEPSSAKNLGDVVKNGRRGSITGNLYIQGIQGHVAYPHLAENPIHKAALFLQELTTYQWDKGNEFFPPTSLQIANIHAGTGSNNVIPAELYIQFNLRYCTEVTDEIIKQKVAEMLEKHNLKYRIEWNLSGKPFLTKPGKLLDSITSAIEETIGITPKAETGGGTSDGRFIALMGAEVVEFGPLNSTIHKVNECVSVEDLGKCGEIYHKMLVNLLDS”, the protein production entry is on record as “not failed”.
“MDKVSIIIPVYNVQSFLNECIESVLAQTYSNLEIILVNDGSTDNSGDICDYYSEIDGRIFVFHKNNGGLSDARNYGISRATGDYIYLLDSDDYLYKEDAIERMVEFSEKYNSEIVLGCYVEKREQHIINIVLEDEMIETISPVQAIQNIYNYDAYRAIFTVAHNKLYKRELFSTLCYPVGKLHEDEFLTYKLYLKAKNIIFFRYNTYAYRIRENSIMTGSYNIKRLHAVEALKERIYLLEKYPDLVFQSERALIKTMEVNLIELYKNNFYKEFHTLKTEYKKTIFDFIKKQRMLLKIKYYLKYCVVHFKILNCKRKKKINKLEHHHHHH”: the protein production result is “not failed”.
For the sequence “MLFTPEGTPMARRLEDARILMYSHDTFGLGHLRRCRAIAHALVEDYRGLNILIISGATIAGAFDYRARVDFVKIPSVIKLRNGEYTSLASHIDLHETLKMRESSIRHTAETFQPDIFIVDKEPMGLKGEVEDTLAYLKARGTVLVLGLREIMDAPHLLDAEWKRNGIMQKIDQYYDSVWVYGPPDFYDPLIGLDVPVSLRRKMDFVGFLQRSVSKGKTSIHARKDNYLLVTTGGGGDGSDLVHDVMNAYEADPTLTQKALVVLGPYMPAAERAKLVQKGEAIPYIEVIEFDNHMEELIDGATGVVAMGGYNTYCEILSFDKPALIVPRVKPREEQLLRAKRASELGLVDMLLPEQSVDPAIMAAALKRLPSRLPPSKSGSNMHLEGLDHISQTVGRWLDGRATHLAVVGAE”, the protein production entry was “failed”.
For “SADSEADKPLRKISAAFKKLAIIVNSPNPEVPVTQFSHACSLVSPLFGCLGIAFKFAEMDYVAKVDDLVRASSSISTLVVMMDKDIEADCVRKAGSHTRNLLRVKRGLDMVKVLFEQIIASEGDNSLKDPATKSYAQVFAPHHGWAIRKAVSLGMYALPTRAHLLNMLKEDEAAAKIHMQSYVNSSAPLITYLDNLFLSKQLGIDW” the value was “failed”.
For “MFDNDRLLLRVLLFGLLGASLWVLAPFWSALFWAAVLAFASWPLMRMLTRLLGGRESLAAGLLTLGWIVLVALPLIWLGFGLADNVRSLMELLKNLQVEGLPPPPSWMAGVPLIGDRLIGWWDSIDQQGVAFFYVLKPYVGEVGNWLLARSAKIGGGILELVLSLILIFFFYRDGPRLESIVHRALERLIGNRAEHYRDLVAGTVQRVVNGVIGTAAAQALLAWIGFMIAGVPGAMLLGLLTFACSLLMVPPLVWGPATAWLFFKGDYGHGVFLGLWGFFIISGVDNILKPYLISRGGNLPLVVVLLGVFGGLLAFGFMGLFLGPILLAVAYNLLSDWIASTPRTPPGEGRGPDA”, the protein production entry is “failed”.
For “MVSAPASASSSPASSSFQSFFWQAAARPRAEPKRQALKRITLMTTDKTSPYEIHDDRFRHLIVGNAELEELYSGCRWAEGPVWFADLNCLLFSDIPNERMLRWVPDGGISVFRQPSNFTNGNTRDRQGRLVSCEHGGRRVTRTEVDGSITVLADSYGGKRLNSPNDVVVKSDGSVWFTDPTYGILSDYEGYKAEPEQKTRNVYRLDPATGKIDIAIDDFVQPNGLAFSPDETKLYVADSSYSHDISRPRHIRVFDVVDGVRLANGREFCNLDNGLPDGFRLDTAGNLWTSAGDGVHCFAPDGRLIGKIKVPQTVANLTFGGPKKNRLFITATKSLYSVYVAATGAQTPLEHHHHHH” the value was “not failed”; for “MSKLDLHQMTTQDLVALFAKVTVEQDDALLGNQISRFNRLFGVMAEIADELKARDGDQRTALLSLFEYPNMQVRLQAAKLTLAVAPVKAREQLEAIVSSKWFPQAGDAGMCLDLLDDGTFKPK”, “not failed”.
The entry for “EQQGKFDWMLRDLYDGVPGIEMIVVLSADGLRIARYSGDPDAADRVAAACAGLQSLASAVSQEIPTSDGDMKMVLIEMNGGYFYLMAAGPNAYLAVLSDVRCEPGRMGLSMADLVARIGPHLTSPARR” is “failed”.
On to “MKLVCISDTHSLHRRIPEIPDGDVLIHAGDSLGQGSLENIEDLNDWLGTLPHRHKIVIAGNHDWAFQEMPGEARTALSNAVYLEDSGVEIEGNRFWGSPWTPTFMDWAFMLERGEPLYQKWQLVPDNTDVLITHGPPKGIGDEANLGFKCQNVGCVDLLARIHQLSLKAHIFGHIHEGYGEYLRGKTRLINASTCTARYEPRNAPIVVDVLEHHHHHH”, for which the protein production result is recorded as “failed”.
With “MQDSLGIMIKKANNALARDSDHYAKSLGLTGMQISTINFIANNEQHHDLFQRDLELEFNIRKATCSSLVSKMEAADLLIRVPAKDDGRYKRLLLTPKARQLATKIERFFETSEQRMATILGVNTAETYEALRQIAVAFSTPTHAPENWY”, the protein production entry is listed as “failed”.
Take “TTQKGHRQKSFYRGVRAEKWAAWWLRCKGFHIAEIRFKTKCGEIDLIARRGNLVLIVEVKARSTLAEAMAAVSRVNERRIEAAADIWLARQKDRALLCVRFDLIAILPWRWPQHIPAFFM”: the protein production result is listed as “failed”.
Consider “MTPSKTTLVERCYKYIMSNEKNWSPYTVINRKSWVKNYIEPFFKDTKLIDINPVLIQTFINTTFNNCTFSSSKIRYRFISSVLKEAYRLREINENPCDFVKLPLEHHHHHH”, for which the protein production entry is listed as “failed”.
The entry for “IKHWVFDMDGTLTIAVHDFAAIREALSIPAEDDILTHLAALPADESAAKHAWLLEHERDLAQGSRPAPGAVELVRELAGRGYRLGILTRNARELAHVTLEAIGLADCFAEADVLGRDEAPPKPHPGGLLKLAEAWDVSPSRMVMVGDYRFDLDCGRAAGTRTVLVNLPDNPWPELTDWHARDCAQLRDLLSA” is “failed”; for “MSFEEFTPLNEKSLVDYIKSTPALSSKIGADKSDDDLVIKEVGDGNLNFVFIVVGSSGSLVIKQALPYIRCIGESWPMTKERAYFEATTLRKHGNLSPDHVPEVYHFDRTMALIGMRYLEPPHIILRKGLIAGIEYPFLADHMSDYMAKTLFFTSLLYHDTTEHRRAVTEFCGNVELCRLTEQVVFSDPYRVSTFNRWTSPYLDDDAKAVREDSALKLEIAELKSMFCERAQALIHGDLHTGSVMVTQDSTQVIDPEFSFYGPMGFDIGAYLGNLILAFFAQDGHATQENDRKEYKQWILRTIEQTWNLFNKRFIALWDQNKDGPGEAYLADIYNNTEVLKFVQENYMRNLLHDSLGFGAAKMIRRIVGVAHVEDFESIEEDKRRAICERSALEFAKMLLKERRKFKSIGEVVSAIQQQS” it is “failed”.
